This is an account of results in patent US7427404.

The test has as its target monoclonal anti-S1 antibody 1B7. As to the kind of experiment: competition RIA: 1B7 coated on plate, 125I-PT displaced by unlabelled toxin.

In turn, “PT-9K (from UniProt P04978 28-226; P04979 29-227; P0A3R5 43-152; P04981 35-133)” displayed a Ka of 8.9e+08 M⁻¹.
